Earlier results in patent US10472401B2, “Peptides and combination of peptides for use in immunotherapy against ovarian cancer and other cancers” (immatics biotechnologies GmbH, priority 2015, dated 2019).

Test system: ovarian cancer
Settings: clinical studies

B1: abagovomab (antibody, chains of the INN, looked up, V domains shown)
VH: QVKLQESGAELARPGASVKLSCKASGYTFTNYWMQWVKQRPGQGLDWIGAIYPGDGNTRYTHKFKGKATLTADKSSSTAYMQLSSLASEDSGVYYCARGEGNYAWFAYWGQGTTVTVSS
VL: DIELTQSPASLSASVGETVTITCQASENIYSYLAWHQQKQGKSPQLLVYNAKTLAGGVSSRFSGSGSGTHFSLKIKSLQPEDFGIYYCQHHYGILPTFGGGTKLEIK
notes: anti-CA-125 antibody
clinical results in ovarian cancer patients: promising results in phase II and III studies
